Experimental findings from paper PMC8476798, “SLURP-1 Controls Growth and Migration of Lung Adenocarcinoma Cells, Forming a Complex With α7-nAChR and PDGFR/EGFR Heterodimer” (Frontiers in Cell and Developmental Biology, 2021) are described below.

The target of assay [1] is nicotinic acetylcholine receptor of α7 type (α7-nAChR) (human (endogenous in A549)) (UniProt P36544). The note with it: scale: % of viable cells relative to the control.
Assay [2] shares this target.
The target is the same in assay [3]. The source holds these as a separate data set.
Assay [4] shares this target. The source holds these as a separate data set.
Assay [5] concerns the target nicotinic acetylcholine receptor of α7 type (α7-nAChR) (human (endogenous in A549), UniProt P36544 23-502). Put plainly: cell-based or functional assay.

nicotinic acetylcholine receptor of α7 type (α7-nAChR) (human (endogenous in A549)), sequence (P36544 23-502): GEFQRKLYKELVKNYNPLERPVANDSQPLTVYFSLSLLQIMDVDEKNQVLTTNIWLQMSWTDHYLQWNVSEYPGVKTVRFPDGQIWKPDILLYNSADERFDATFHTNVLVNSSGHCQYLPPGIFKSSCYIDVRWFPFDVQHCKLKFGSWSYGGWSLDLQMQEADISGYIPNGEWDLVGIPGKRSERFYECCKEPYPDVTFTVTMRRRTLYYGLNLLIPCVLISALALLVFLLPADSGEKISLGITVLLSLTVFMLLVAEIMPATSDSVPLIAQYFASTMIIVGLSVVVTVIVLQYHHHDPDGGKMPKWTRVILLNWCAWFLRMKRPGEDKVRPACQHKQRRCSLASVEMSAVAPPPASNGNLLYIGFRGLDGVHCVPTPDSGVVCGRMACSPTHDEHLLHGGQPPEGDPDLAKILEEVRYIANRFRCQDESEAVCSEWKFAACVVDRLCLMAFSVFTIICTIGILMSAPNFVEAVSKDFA
nicotinic acetylcholine receptor of α7 type (α7-nAChR), sequence (P36544 23-502): as above

As to chimeric protein NTII/SL-1(I), the antiproliferative activity in A549 cells, WST-1 test, 48 h with 1 μM protein, % of viable cells relative to the control in assay [1] was 70.
As to “synthetic peptide “loop III” with the sequence of loop III of SLURP-1”, in assay [2], the IC50 of inhibition of ACh-evoked currents at human α7-nAChRs expressed in X. laevis oocytes (two-electrode voltage clamp, 100 μM ACh) is more than 250000 nM.
In the case of “synthetic peptide “loop I” mimicking loop I of SLURP-1”, the EC50 of the inhibition of A549 cell migration, scratch assay (control cells without knock-down) in assay [3] was 226 nM. The IC50 of inhibition of ACh-evoked currents at human α7-nAChRs expressed in X. laevis oocytes (two-electrode voltage clamp, 100 μM ACh) in assay [2] was determined as 74000 nM. The molecule also returned an EC50 of the decrease of A549 cell viability, WST-1 test, 48 h in assay [4] of 1800 nM.

B1: recombinant analogue of human SLURP-1 (rSLURP-1) (natural protein, UniProt P55000 23-103, looked up)
chain: LKCYTCKEPMTSASCRTITRCKPEDTACMTTLVTVEAEYPFNQSPVVTRSCSSSCVATDPDSIGAAHLIFCCFRDLCNSEL
As to B1, in assay [5], the “EC50 of the decrease of A549 cell viability, WST-1 test, 48 h” value was determined as 10.1 nM and the “IC50 of inhibition of ACh-evoked currents at human α7-nAChRs expressed in X. laevis oocytes (two-electrode voltage clamp, 100 μM ACh)” value worked out at 12000 nM.
